Results from patent US20100215651A1 (GLENMARK PHARMACEUTICALS S A, published 2010).

Assays:
human CD19 [1] = target: T1, human CD19 (human, UniProt P15391 20-556); test: flow cytometry, Raji cells, MPF vs chimeric FMC63
T1 construct: CD19 as expressed on Raji, NALM-6 and SU-DHL-6 cells; also called CD19 antigen; B-cell surface antigen B4
T1 sequence: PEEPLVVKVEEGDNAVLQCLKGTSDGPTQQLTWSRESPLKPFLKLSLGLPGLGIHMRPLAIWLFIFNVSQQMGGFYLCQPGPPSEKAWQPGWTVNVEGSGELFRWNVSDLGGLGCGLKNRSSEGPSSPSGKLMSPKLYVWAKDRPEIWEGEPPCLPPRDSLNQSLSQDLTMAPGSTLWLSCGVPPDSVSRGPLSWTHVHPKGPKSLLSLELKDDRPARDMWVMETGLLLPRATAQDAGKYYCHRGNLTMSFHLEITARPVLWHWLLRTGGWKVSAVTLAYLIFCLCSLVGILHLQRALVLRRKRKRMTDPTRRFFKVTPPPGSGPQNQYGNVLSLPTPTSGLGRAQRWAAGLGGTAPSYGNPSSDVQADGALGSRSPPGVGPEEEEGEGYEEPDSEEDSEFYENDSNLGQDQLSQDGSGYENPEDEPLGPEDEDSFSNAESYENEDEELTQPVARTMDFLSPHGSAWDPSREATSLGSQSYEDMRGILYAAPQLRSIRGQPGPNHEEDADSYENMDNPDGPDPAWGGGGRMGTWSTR
Procedure: (§1) Binding of the CD19 humanized monoclonal antibodies by flow cytometry to Raji tumor cells (human Burkitt lymphoma, DSMZ ACC319), NALM-6 (human B cell precursor leukemia, DSMZ ACC128) and SU-DHL-6 (human B cell lymphoma, DSMZ ACC572) (all cell lines from DSMZ Braunschweig, Deutschland) was assessed. Cells were incubated with serial dilutions of each humanized monoclonal antibody. An irrelevant human IgG1 was used as a negative control. The cells were washed and detected by a phycoerythrin-labeled (PE) anti-human secondary antibody (eBioscience, CA, USA) and analyzed by flow cytometry. […] From MFI versus antibody concentration curves, Mid-Point Fluorescence (MPF) value for each anti-CD19 humanized antibody was calculated using the software GraphPad Prism 5 (CA, USA).

human CD19 [2] = target: T1, human CD19; test: flow cytometry on SU-DHL-6 cells, PE-labelled anti-human secondary antibody, MFI against antibody concentration
Procedure: as §1

human CD19 [3] = target: T1, human CD19; test: cell-based or functional assay
human CD19 [4] = target: T1, human CD19; test: competition with 0.2 nM Eu3+-labelled chimeric FMC63 on Raji cells
Procedure: To that aim, 100 μl volumes of Raji cells in RPMI-1640 medium (Chemie Brunschwig AG, PAA, Basel, Switzerland) supplemented with 10% fetal bovine serum (FBS, Chemie Brunschwig AG, PAA, Basel, Switzerland), 2 mM ultraglutamine 1 (Lonza, Verviers, Belgium) and 1% penicillin/streptomycin (Chemie Brunschwig AG, PAA, Basel, Switzerland), prepared at concentration of 1×10⁶ cells/ml were seeded in a U-bottomed 96-well plate. […] The antibody dilutions were cooled down to 4° C. before 100 μl was taken and added on the Raji cells. […] Cells were incubated with the antibodies for 15 minutes on ice. After reaching equilibrium, the cells were centrifuged at 1300 RPM for 2 minutes and supernatant was discarded. Cell pellets were washed twice with 200 μl of cold binding buffer PBS-2.5% FBS-0.05% NaN₃, and resuspended into 100 μl of Delfia solution. Cell bound Eu³+-FMC63 was measured with time resolved fluorescence as described above. The amount of Eu³+-FMC63 (fmole) per well was determined and plotted versus the total amount of unlabelled antibody.

human CD19 [5] = target: T1, human CD19; test: flow cytometry, Raji cells, MPF vs chimeric FMC63; remark: listed apart in the source
Procedure: as §1

human CD19 [6] = target: T1, human CD19; test: flow cytometry, Raji cells, MPF vs chimeric FMC63; remark: listed apart in the source
Procedure: as §1

human CD19 [7] = target: T1, human CD19; test: flow cytometry, NALM-6 cells, MPF vs chimeric FMC63
Procedure: as §1

human CD19 [8] = target: T1, human CD19; test: binding to Raji cells
human CD19 [9] = target: T1, human CD19; test: flow cytometry on Raji cells
Procedure: as §1

B1: VH16-R94K/VL43-V3Q-T7S-P44I-N92A (antibody, human IgG1, kappa, V domains shown)
VH: QVQLVQSGGGVVQPGRSLRLSCAASGVSLPDYGVSWVRQAPGKGLEWVAVIWGSETTYYNSALKSRFTISRDNSKNTLYLQMNSLRAEDTAVYYCAKHYYYGGSYAMDYWGQGTLVTVSS
VL: DIQMTQSPSSLSASVGDRVTITCRASQDISKYLNWYQQKPGKAIKLLIYHTSRLHSGVPSRFSGSGSGTDFTLTISSLQPEDFATYYCQQGATLPYTFGPGTKVDIKR
notes: human IgG1/kappa
relative MPF (% of chimeric FMC63) (human CD19 [1]): 83.3% | EC50 (read off the curve) (human CD19 [2]): ~0.09 µg/mL | ADCC: specific lysis of Raji cells by PBMC (LDH release), against IgG1 control (human CD19 [3]): ≥ 3 fold | Ki (human CD19 [4]): 3.9 nM

B2: VH16/VL43 (antibody, human IgG1, V domains shown)
VH: QVQLVQSGGGVVQPGRSLRLSCAASGVSLPDYGVSWVRQAPGKGLEWVAVIWGSETTYYNSALKSRFTISRDNSKNTLYLQMNSLRAEDTAVYYCARHYYYGGSYAMDYWGQGTLVTVSS
VL: DIVMTQTPSSLSASVGDRVTITCRASQDISKYLNWYQQKPGKAPKLLIYHTSRLHSGVPSRFSGSGSGTDFTLTISSLQPEDFATYYCQQGNTLPYTFGPGTKVDIKR
relative MPF (% of chimeric FMC63) (human CD19 [1]): 7.42% | relative MPF (% of chimeric FMC63) (human CD19 [5]): 7.14% | relative MPF (% of chimeric FMC63) (human CD19 [6]): 7.14% | relative MPF (% of chimeric FMC63) (human CD19 [7]): 3.29% | Ki (human CD19 [4]): 72.8 nM

B3: VH16 R94K VL43 F71H (antibody, human IgG1, V domains shown)
VH: QVQLVQSGGGVVQPGRSLRLSCAASGVSLPDYGVSWVRQAPGKGLEWVAVIWGSETTYYNSALKSRFTISRDNSKNTLYLQMNSLRAEDTAVYYCAKHYYYGGSYAMDYWGQGTLVTVSS
VL: DIVMTQTPSSLSASVGDRVTITCRASQDISKYLNWYQQKPGKAPKLLIYHTSRLHSGVPSRFSGSGSGTDHTLTISSLQPEDFATYYCQQGNTLPYTFGPGTKVDIK
binding result (human CD19 [8]): binds

B4: VH16-Q6E/VL43-V3Q/T7S (antibody, human IgG1, name in Kabat numbering, V domains shown)
VH: QVQLVESGGGVVQPGRSLRLSCAASGVSLPDYGVSWVRQAPGKGLEWVAVIWGSETTYYNSALKSRFTISRDNSKNTLYLQMNSLRAEDTAVYYCARHYYYGGSYAMDYWGQGTLVTVSS
VL: DIQMTQSPSSLSASVGDRVTITCRASQDISKYLNWYQQKPGKAPKLLIYHTSRLHSGVPSRFSGSGSGTDFTLTISSLQPEDFATYYCQQGNTLPYTFGPGTKVDIKR
notes: substitutions in Kabat numbering
relative MPF (% of chimeric FMC63) (human CD19 [5]): 5.68%

B5: VH16-Y32F-R94K-Y97F/VL43-V3Q-T7S-N92A (antibody, human IgG1, name in Kabat numbering, V domains shown)
VH: QVQLVQSGGGVVQPGRSLRLSCAASGVSLPDFGVSWVRQAPGKGLEWVAVIWGSETTYYNSALKSRFTISRDNSKNTLYLQMNSLRAEDTAVYYCAKHYFYGGSYAMDYWGQGTLVTVSS
VL: DIQMTQSPSSLSASVGDRVTITCRASQDISKYLNWYQQKPGKAPKLLIYHTSRLHSGVPSRFSGSGSGTDFTLTISSLQPEDFATYYCQQGATLPYTFGPGTKVDIKR
notes: as for B4
relative MPF (% of chimeric FMC63) (human CD19 [1]): 16.9% | Ki (human CD19 [4]): 49.9 nM

B6: VH16 Y32F/R94K/Y97F/VL43 V3Q/T7S/Y32F/N92A (antibody, human IgG1, name in Kabat numbering, V domains shown)
VH: QVQLVQSGGGVVQPGRSLRLSCAASGVSLPDFGVSWVRQAPGKGLEWVAVIWGSETTYYNSALKSRFTISRDNSKNTLYLQMNSLRAEDTAVYYCAKHYFYGGSYAMDYWGQGTLVTVSS
VL: DIQMTQSPSSLSASVGDRVTITCRASQDISKFLNWYQQKPGKAPKLLIYHTSRLHSGVPSRFSGSGSGTDFTLTISSLQPEDFATYYCQQGATLPYTFGPGTKVDIKR
notes: as for B4
binding result (human CD19 [9]): no binding

B7: VH16 R94K VL43 F71T (antibody, human IgG1, V domains shown)
VH: QVQLVQSGGGVVQPGRSLRLSCAASGVSLPDYGVSWVRQAPGKGLEWVAVIWGSETTYYNSALKSRFTISRDNSKNTLYLQMNSLRAEDTAVYYCAKHYYYGGSYAMDYWGQGTLVTVSS
VL: DIVMTQTPSSLSASVGDRVTITCRASQDISKYLNWYQQKPGKAPKLLIYHTSRLHSGVPSRFSGSGSGTDTTLTISSLQPEDFATYYCQQGNTLPYTFGPGTKVDIK
binding result (human CD19 [8]): binds

B8: VH16 R94K VL43 F71S (antibody, human IgG1, V domains shown)
VH: QVQLVQSGGGVVQPGRSLRLSCAASGVSLPDYGVSWVRQAPGKGLEWVAVIWGSETTYYNSALKSRFTISRDNSKNTLYLQMNSLRAEDTAVYYCAKHYYYGGSYAMDYWGQGTLVTVSS
VL: DIVMTQTPSSLSASVGDRVTITCRASQDISKYLNWYQQKPGKAPKLLIYHTSRLHSGVPSRFSGSGSGTDSTLTISSLQPEDFATYYCQQGNTLPYTFGPGTKVDIK
binding result (human CD19 [8]): binds

B9: VH16/VL43-V3Q/T7S (antibody, human IgG1, V domains shown)
VH: QVQLVQSGGGVVQPGRSLRLSCAASGVSLPDYGVSWVRQAPGKGLEWVAVIWGSETTYYNSALKSRFTISRDNSKNTLYLQMNSLRAEDTAVYYCARHYYYGGSYAMDYWGQGTLVTVSS
VL: DIQMTQSPSSLSASVGDRVTITCRASQDISKYLNWYQQKPGKAPKLLIYHTSRLHSGVPSRFSGSGSGTDFTLTISSLQPEDFATYYCQQGNTLPYTFGPGTKVDIKR
notes: as for B4
relative MPF (% of chimeric FMC63) (human CD19 [5]): 4.93%

B10: VH16 R94K/Y97F/VL43 V3Q/T7S/Y32F/N92A (antibody, human IgG1, name in Kabat numbering, V domains shown)
VH: QVQLVQSGGGVVQPGRSLRLSCAASGVSLPDYGVSWVRQAPGKGLEWVAVIWGSETTYYNSALKSRFTISRDNSKNTLYLQMNSLRAEDTAVYYCAKHYFYGGSYAMDYWGQGTLVTVSS
VL: DIQMTQSPSSLSASVGDRVTITCRASQDISKFLNWYQQKPGKAPKLLIYHTSRLHSGVPSRFSGSGSGTDFTLTISSLQPEDFATYYCQQGATLPYTFGPGTKVDIKR
notes: as for B4
binding result (human CD19 [9]): no binding

B11: VH16 R94K VL43 N92A (antibody, human IgG1)
heavy: not shown
VL: DIVMTQTPSSLSASVGDRVTITCRASQDISKYLNWYQQKPGKAPKLLIYHTSRLHSGVPSRFSGSGSGTDFTLTISSLQPEDFATYYCQQGATLPYTFGPGTKVDIKRTVAA
notes: Full-length human IgG1/kappa; substitutions in Kabat numbering
relative MPF (% of chimeric FMC63) (human CD19 [6]): 25.9%

B12: VH16 R94K VL43 T93V (antibody, human IgG1, V domains shown)
VH: QVQLVQSGGGVVQPGRSLRLSCAASGVSLPDYGVSWVRQAPGKGLEWVAVIWGSETTYYNSALKSRFTISRDNSKNTLYLQMNSLRAEDTAVYYCAKHYYYGGSYAMDYWGQGTLVTVSS
VL: DIVMTQTPSSLSASVGDRVTITCRASQDISKYLNWYQQKPGKAPKLLIYHTSRLHSGVPSRFSGSGSGTDFTLTISSLQPEDFATYYCQQGNVLPYTFGPGTKVDIKR
notes: Full-length human IgG1/kappa; substitutions in Kabat numbering; also called VK16 R94K VL43 T93V
relative MPF (% of chimeric FMC63) (human CD19 [6]): 17.4%

B13: VH16-R94K/VL43-V3Q/T7S (antibody, human IgG1)
heavy: not shown
VL: DIQMTQSPSSLSASVGDRVTITCRASQDISKYLNWYQQKPGKAPKLLIYHTSRLHSGVPSRFSGSGSGTDFTLTISSLQPEDFATYYCQQGNTLPYTFGPGTKVDIKRTVAA
notes: as for B11
relative MPF (% of chimeric FMC63) (human CD19 [5]): 27.8%

B14: VH16 R94K VL43 T93A (antibody, human IgG1, V domains shown)
VH: QVQLVQSGGGVVQPGRSLRLSCAASGVSLPDYGVSWVRQAPGKGLEWVAVIWGSETTYYNSALKSRFTISRDNSKNTLYLQMNSLRAEDTAVYYCAKHYYYGGSYAMDYWGQGTLVTVSS
VL: DIVMTQTPSSLSASVGDRVTITCRASQDISKYLNWYQQKPGKAPKLLIYHTSRLHSGVPSRFSGSGSGTDFTLTISSLQPEDFATYYCQQGNALPYTFGPGTKVDIKR
notes: as for B11
relative MPF (% of chimeric FMC63) (human CD19 [6]): 34.1%
